We go through four molecules from article PMC9482650, “Quantitative fragmentomics allow affinity mapping of interactomes” (Nature Communications, 2022).

Among the targets are HTRA1, Q92743; MAGI2_3, Q86UL8; DLG1_2, Q12959; PDZRN4_1, Q6ZMN7; MAGI2_2, Q86UL8; NHERF4_4, Q86UT5; LIMK2, P53671.
Test in all cases: holdup assay
Common to all, as to parameters: key: below the threshold = too weak to quantify, mostly under pKd 3.1 to 4

The target of the next assay is T1, DFNB31_1, Q9P202.
T1 sequence (Q9P202 135-233, limits assumed, looked up): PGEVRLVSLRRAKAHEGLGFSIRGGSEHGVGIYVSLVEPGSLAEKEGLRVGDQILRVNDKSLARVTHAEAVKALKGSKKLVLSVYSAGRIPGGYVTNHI

Another assay has as its target T2, APBA1_1, Q02410.
T2 sequence (Q02410 651-752, limits assumed, looked up): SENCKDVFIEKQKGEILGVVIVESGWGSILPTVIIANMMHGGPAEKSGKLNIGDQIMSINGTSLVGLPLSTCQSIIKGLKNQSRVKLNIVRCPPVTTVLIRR

A further assay concerns the target T3, FRMPD1, Q5SYB0.
T3 sequence (Q5SYB0 52-145, limits assumed, looked up): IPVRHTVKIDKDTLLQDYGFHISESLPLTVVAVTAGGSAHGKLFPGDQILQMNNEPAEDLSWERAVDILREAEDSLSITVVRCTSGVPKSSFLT

The target of another assay is T4, DVL3, Q92997.
T4 sequence (Q92997 244-331, limits assumed, looked up): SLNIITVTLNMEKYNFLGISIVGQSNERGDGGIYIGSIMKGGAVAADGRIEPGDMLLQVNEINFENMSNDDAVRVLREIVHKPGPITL

The target of the next assay is T5, DFNB31_3, Q9P202.
T5 sequence (Q9P202 811-907, limits assumed, looked up): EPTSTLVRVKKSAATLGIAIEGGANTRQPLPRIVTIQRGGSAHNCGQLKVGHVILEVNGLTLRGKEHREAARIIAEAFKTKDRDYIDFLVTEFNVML

For a further assay, the target named is T6, DFNB31_2, Q9P202.
T6 sequence (Q9P202 274-371, limits assumed, looked up): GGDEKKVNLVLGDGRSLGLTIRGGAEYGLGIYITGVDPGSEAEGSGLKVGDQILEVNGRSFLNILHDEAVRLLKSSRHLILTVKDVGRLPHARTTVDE

A further assay concerns the target T7, HTRA4, P83105.
T7 sequence (P83105 378-476, limits assumed, looked up): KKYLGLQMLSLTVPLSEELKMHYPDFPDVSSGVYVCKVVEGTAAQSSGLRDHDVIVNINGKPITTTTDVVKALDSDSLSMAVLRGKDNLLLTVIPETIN

A further assay concerns the target T8, LIN7C, Q9NUP9.
T8 sequence (Q9NUP9 88-185, limits assumed, looked up): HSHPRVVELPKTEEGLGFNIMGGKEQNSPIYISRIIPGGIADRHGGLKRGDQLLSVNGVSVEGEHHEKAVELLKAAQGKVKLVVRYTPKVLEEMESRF

The next assay deals with T9, CARD11, Q9BXL7.
T9 sequence (Q9BXL7 662-765, limits assumed, looked up): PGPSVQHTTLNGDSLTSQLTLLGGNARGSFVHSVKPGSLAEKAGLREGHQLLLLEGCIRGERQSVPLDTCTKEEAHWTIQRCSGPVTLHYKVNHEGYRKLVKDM

In a further assay the target is T10, GRIP1_5, Q9Y3R0.
T10 sequence (Q9Y3R0 568-668, limits assumed, looked up): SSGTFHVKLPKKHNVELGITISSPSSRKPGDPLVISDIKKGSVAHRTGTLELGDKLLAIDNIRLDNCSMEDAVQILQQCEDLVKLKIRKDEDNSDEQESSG

The next assay addresses T11, TX1BP3, O14907.
T11 sequence (O14907 10-122, limits assumed, looked up): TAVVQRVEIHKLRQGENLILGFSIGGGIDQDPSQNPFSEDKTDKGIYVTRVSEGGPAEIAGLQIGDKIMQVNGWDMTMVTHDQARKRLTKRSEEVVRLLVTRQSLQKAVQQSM

Another assay deals with T12, SHANK1, Q9Y566.
T12 sequence (Q9Y566 658-767, limits assumed, looked up): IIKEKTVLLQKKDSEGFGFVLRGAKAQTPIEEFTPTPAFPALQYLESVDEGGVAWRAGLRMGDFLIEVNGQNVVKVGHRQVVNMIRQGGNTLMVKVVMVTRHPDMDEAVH

A further assay addresses T13, TIAM2, Q8IVF5.
T13 sequence (Q8IVF5 885-986, limits assumed, looked up): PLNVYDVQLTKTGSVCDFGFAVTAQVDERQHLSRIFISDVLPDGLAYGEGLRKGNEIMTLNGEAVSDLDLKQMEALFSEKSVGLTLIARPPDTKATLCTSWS

Another assay concerns the target T14, TJP3_3, O95049.
T14 sequence (O95049 375-456, limits assumed, looked up): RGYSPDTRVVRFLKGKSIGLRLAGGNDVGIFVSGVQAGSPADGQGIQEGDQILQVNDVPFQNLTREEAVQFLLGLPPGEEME

Another assay deals with T15, RAPGEF6, Q8TEU7.
T15 sequence (Q8TEU7 525-625, limits assumed, looked up): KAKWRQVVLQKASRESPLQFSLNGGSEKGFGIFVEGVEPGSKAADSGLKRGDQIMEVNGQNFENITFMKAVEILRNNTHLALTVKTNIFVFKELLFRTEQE

[1] abbreviates: plain residues with an end cap or a label only (N-terminal biotin on a linker: ahx).
Setting [2] is: plain residues with an end cap or a label only (N-terminal biotin on a linker: ado-ado).

Chain of PDZRN4_1, Q6ZMN7 (Q6ZMN7 213-318): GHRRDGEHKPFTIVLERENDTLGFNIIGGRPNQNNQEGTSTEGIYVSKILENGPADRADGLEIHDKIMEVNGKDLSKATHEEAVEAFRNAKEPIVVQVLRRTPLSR
Chain of NHERF4_4, Q86UT5 (Q86UT5 464-550): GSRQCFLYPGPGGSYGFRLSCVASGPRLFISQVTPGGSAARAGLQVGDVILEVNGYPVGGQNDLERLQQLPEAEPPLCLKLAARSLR
Chain of MAGI2_2, Q86UL8 (Q86UL8 410-522): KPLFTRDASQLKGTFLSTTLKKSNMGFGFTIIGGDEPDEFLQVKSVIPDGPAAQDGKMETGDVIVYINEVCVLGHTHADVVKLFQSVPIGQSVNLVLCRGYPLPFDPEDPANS
Chain of MAGI2_3, Q86UL8 (Q86UL8 600-682): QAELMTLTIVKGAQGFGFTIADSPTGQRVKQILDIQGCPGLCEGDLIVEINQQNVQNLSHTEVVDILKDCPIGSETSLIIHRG
Chain of HTRA1, Q92743 (Q92743 360-477): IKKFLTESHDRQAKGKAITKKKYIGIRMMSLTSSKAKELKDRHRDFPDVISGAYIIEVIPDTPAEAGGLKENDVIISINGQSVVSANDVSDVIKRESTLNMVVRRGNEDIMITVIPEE
Chain of DLG1_2, Q12959 (Q12959 314-412): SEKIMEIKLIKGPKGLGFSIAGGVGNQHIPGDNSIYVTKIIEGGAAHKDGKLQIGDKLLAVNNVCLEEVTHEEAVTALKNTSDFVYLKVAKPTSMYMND
Chain of LIMK2, P53671 (P53671 143-248): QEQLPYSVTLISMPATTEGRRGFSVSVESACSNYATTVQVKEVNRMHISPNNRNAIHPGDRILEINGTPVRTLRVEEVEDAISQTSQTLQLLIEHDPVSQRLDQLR

On to QNTDDVQTSF [ACE2, Q9BYF1], for which the negative-log Kd (pKd) – broadly, the negative decadic logarithm of the Kd, by convention in mol/L – in the assay with DFNB31_1, Q9P202 (setting [1]) is 3.47; with APBA1_1, Q02410 (setting [1]) it was “below the threshold”; with HTRA1, Q92743 (setting [1]), “below the threshold”; with MAGI2_3, Q86UL8 (setting [1]), “below the threshold”; with FRMPD1, Q5SYB0 (setting [1]), “below the threshold”; with DVL3, Q92997 (setting [1]) it was “below the threshold”. Further, the negative logarithm of the Kd (pKd) is 3.54 in the assay with DLG1_2, Q12959 (setting [1]); “below the threshold” in the assay with DFNB31_3, Q9P202 (setting [1]); “below the threshold” in the assay with PDZRN4_1, Q6ZMN7 (setting [1]); “below the threshold” with DFNB31_2, Q9P202 (setting [1]); “below the threshold” with MAGI2_2, Q86UL8 (setting [1]); “below the threshold” with HTRA4, P83105 (setting [1]). The pKd entry with NHERF4_4, Q86UT5 (setting [1]) is “below the threshold”; with LIN7C, Q9NUP9 (setting [1]), “below the threshold”; with CARD11, Q9BXL7 (setting [1]) it was “below the threshold”; in the assay with GRIP1_5, Q9Y3R0 (setting [1]), “below the threshold”; in the assay with TX1BP3, O14907 (setting [1]), “below the threshold”; with SHANK1, Q9Y566 (setting [1]), 4.75. In addition, the pKd entry with TIAM2, Q8IVF5 (setting [1]) is on record as “below the threshold”; in the assay with TJP3_3, O95049 (setting [1]), “below the threshold”; with LIMK2, P53671 (setting [1]) it was “below the threshold”; in the assay with RAPGEF6, Q8TEU7 (setting [1]), “below the threshold”.
For PYSESDDDWC [CACNA1A, O00555], the pKd entry with DFNB31_1, Q9P202 (setting [2]) is “below the threshold”; in the assay with APBA1_1, Q02410 (setting [2]), 3.48; with HTRA1, Q92743 (setting [2]), 4.53; with MAGI2_3, Q86UL8 (setting [2]), “below the threshold”; with FRMPD1, Q5SYB0 (setting [2]), “below the threshold”; with DVL3, Q92997 (setting [2]), “below the threshold”. Moreover, the pKd result with DLG1_2, Q12959 (setting [2]) is “below the threshold”; in the assay with DFNB31_3, Q9P202 (setting [2]), 3.6; with PDZRN4_1, Q6ZMN7 (setting [2]) it was “below the threshold”; with DFNB31_2, Q9P202 (setting [2]), “below the threshold”; with MAGI2_2, Q86UL8 (setting [2]), “below the threshold”; with HTRA4, P83105 (setting [2]) it was “below the threshold”. The negative-log Kd (pKd) result is on record as “below the threshold” in the assay with NHERF4_4, Q86UT5 (setting [2]); “below the threshold” with LIN7C, Q9NUP9 (setting [2]); “below the threshold” with CARD11, Q9BXL7 (setting [2]); “below the threshold” with GRIP1_5, Q9Y3R0 (setting [2]); “below the threshold” with TX1BP3, O14907 (setting [2]); “below the threshold” with SHANK1, Q9Y566 (setting [2]). The pKd in the assay with TIAM2, Q8IVF5 (setting [2]) is 4.06; in the assay with TJP3_3, O95049 (setting [2]), 4.39; with LIMK2, P53671 (setting [2]), “below the threshold”; with RAPGEF6, Q8TEU7 (setting [2]) it was “below the threshold”.
As to KKMLQRRTLL [OR8G1, Q15617], the pKd entry in the assay with DFNB31_1, Q9P202 (setting [2]) is recorded as “below the threshold”; with APBA1_1, Q02410 (setting [2]), “below the threshold”; in the assay with HTRA1, Q92743 (setting [2]), “below the threshold”; in the assay with MAGI2_3, Q86UL8 (setting [2]) it was “below the threshold”; with FRMPD1, Q5SYB0 (setting [2]), “below the threshold”; with DVL3, Q92997 (setting [2]), “below the threshold”. Moreover, the pKd with DLG1_2, Q12959 (setting [2]) is 4.09; with DFNB31_3, Q9P202 (setting [2]), 4.08; in the assay with PDZRN4_1, Q6ZMN7 (setting [2]), “below the threshold”; with DFNB31_2, Q9P202 (setting [2]), “below the threshold”; in the assay with MAGI2_2, Q86UL8 (setting [2]), 4.44; in the assay with HTRA4, P83105 (setting [2]) it was “below the threshold”. For the same molecule, the pKd result with NHERF4_4, Q86UT5 (setting [2]) is “below the threshold”; with LIN7C, Q9NUP9 (setting [2]), “below the threshold”; with CARD11, Q9BXL7 (setting [2]) it was “below the threshold”; with GRIP1_5, Q9Y3R0 (setting [2]), “below the threshold”; in the assay with TX1BP3, O14907 (setting [2]), 3.76; with SHANK1, Q9Y566 (setting [2]) it was 4.71. Also, the pKd entry in the assay with TIAM2, Q8IVF5 (setting [2]) is reported as “below the threshold”; with TJP3_3, O95049 (setting [2]) it was “below the threshold”; with LIMK2, P53671 (setting [2]), “below the threshold”; in the assay with RAPGEF6, Q8TEU7 (setting [2]) it was “below the threshold”.
With QSGLYESEEL [MYOT, Q9UBF9], the pKd result in the assay with DFNB31_1, Q9P202 (setting [2]) was “below the threshold”; with APBA1_1, Q02410 (setting [2]), “below the threshold”; in the assay with HTRA1, Q92743 (setting [2]) it was 4.17; with MAGI2_3, Q86UL8 (setting [2]), “below the threshold”; with FRMPD1, Q5SYB0 (setting [2]), “below the threshold”; with DVL3, Q92997 (setting [2]), “below the threshold”. For the same molecule, the pKd result is “below the threshold” with DLG1_2, Q12959 (setting [2]); 3.5 with DFNB31_3, Q9P202 (setting [2]); “below the threshold” with PDZRN4_1, Q6ZMN7 (setting [2]); “below the threshold” with DFNB31_2, Q9P202 (setting [2]); 4.08 in the assay with MAGI2_2, Q86UL8 (setting [2]); 3.69 in the assay with HTRA4, P83105 (setting [2]). The pKd entry with NHERF4_4, Q86UT5 (setting [2]) was “below the threshold”; with LIN7C, Q9NUP9 (setting [2]), 3.58; in the assay with CARD11, Q9BXL7 (setting [2]) it was “below the threshold”; with GRIP1_5, Q9Y3R0 (setting [2]), “below the threshold”; with TX1BP3, O14907 (setting [2]), 3.85; with SHANK1, Q9Y566 (setting [2]), 3.72. Besides, the pKd with TIAM2, Q8IVF5 (setting [2]) was 4.19; with TJP3_3, O95049 (setting [2]), “below the threshold”; in the assay with LIMK2, P53671 (setting [2]) it was “below the threshold”; in the assay with RAPGEF6, Q8TEU7 (setting [2]), 3.57.
